The values below are quoted from earlier work in patent US20230372299A1, “PREPARATION OF TEREVALEFIM AND FORMULATIONS THEREOF” (Angion Biomedica Corp., priority 2020, published 2023).

As for “HGF/SF: pleiotropic growth factor that stimulates cell growth, cell motility, morphogenesis and angiogenesis”, the half-life is 3 to 5 min.
